Results: publication PMC10806771

target: trastuzumab (human); test: fluorescence polarisation

| Substance | IC50 [nM] |
| --- | --- |
| Fc-III W11K (peptide) | > 3000 |
| Fc-III W4K (peptide) | > 3000 |
| Fc-III V10K (peptide) | > 3000 |
